According to patent publication US20190177366A1 (published 2019):
Bridge positions count the residues as written; N and C are the ends. Ends that are not written are not given here.

B1: Compound 69 (peptide)
peptide: Ac-CRLPWNLQRIGAPC-NH2
modifications: disulfide 1-14
SMILES: CC[C@H](C)[C@@H]1NC(=O)[C@H](CCCNC(=N)N)NC(=O)[C@H](CCC(N)=O)NC(=O)[C@H](CC(C)C)NC(=O)[C@H](CC(N)=O)NC(=O)[C@H](Cc2c[nH]c3ccccc23)NC(=O)[C@@H]2CCCN2C(=O)[C@H](CC(C)C)NC(=O)[C@H](CCCNC(=N)N)NC(=O)[C@@H](NC(C)=O)CSSC[C@@H](C(N)=O)NC(=O)[C@@H]2CCCN2C(=O)[C@H](C)NC(=O)CNC1=O
B2: Compound 67 (peptide)
peptide: Ac-CRLPWNLKRIGLPC-NH2
modifications: disulfide 1-14
SMILES: CC[C@H](C)[C@@H]1NC(=O)[C@H](CCCNC(=N)N)NC(=O)[C@H](CCCCN)NC(=O)[C@H](CC(C)C)NC(=O)[C@H](CC(N)=O)NC(=O)[C@H](Cc2c[nH]c3ccccc23)NC(=O)[C@@H]2CCCN2C(=O)[C@H](CC(C)C)NC(=O)[C@H](CCCNC(=N)N)NC(=O)[C@@H](NC(C)=O)CSSC[C@@H](C(N)=O)NC(=O)[C@@H]2CCCN2C(=O)[C@H](CC(C)C)NC(=O)CNC1=O
B3: Compound 68 (peptide)
peptide: Ac-CRLPWNLQRIGLAC-NH2
modifications: disulfide 1-14
SMILES: CC[C@H](C)[C@@H]1NC(=O)[C@H](CCCNC(=N)N)NC(=O)[C@H](CCC(N)=O)NC(=O)[C@H](CC(C)C)NC(=O)[C@H](CC(N)=O)NC(=O)[C@H](Cc2c[nH]c3ccccc23)NC(=O)[C@@H]2CCCN2C(=O)[C@H](CC(C)C)NC(=O)[C@H](CCCNC(=N)N)NC(=O)[C@@H](NC(C)=O)CSSC[C@@H](C(N)=O)NC(=O)[C@H](C)NC(=O)[C@H](CC(C)C)NC(=O)CNC1=O

Experiments:
[1] = target: T1, proprotein convertase subtilisin/kexin type 9 (PCSK9) (human, UniProt Q8NBP7 31-152); experiment: phage spot ELISA
T1 construct: domain: prodomain; Recombinant; tag not written as a part; also called rec.PCSK9; His-PCSK9

[2] = target: T2, His-tagged, full-length PCSK9 (human, UniProt A8T644 31-152; Q8NBP7 153-692); experiment: TR-FRET competition; competitor EGF(A)-Fc on His-PCSK9
T2 construct: Target protein of the PCSK9/EGF(A) TR-FRET assay (10 nM); also called His-PCSK9; proprotein convertase subtilisin/kexin type 9
T2 sequence (A8T644 31-152 limits assumed, chain 1 of 2): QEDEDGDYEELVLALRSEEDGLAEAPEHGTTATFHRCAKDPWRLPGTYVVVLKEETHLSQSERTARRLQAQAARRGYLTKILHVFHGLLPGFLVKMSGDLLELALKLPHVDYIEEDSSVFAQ
T2 sequence (A8T644 other isoform, or with tags, fused parts or gaps limits assumed, chain 2 of 2): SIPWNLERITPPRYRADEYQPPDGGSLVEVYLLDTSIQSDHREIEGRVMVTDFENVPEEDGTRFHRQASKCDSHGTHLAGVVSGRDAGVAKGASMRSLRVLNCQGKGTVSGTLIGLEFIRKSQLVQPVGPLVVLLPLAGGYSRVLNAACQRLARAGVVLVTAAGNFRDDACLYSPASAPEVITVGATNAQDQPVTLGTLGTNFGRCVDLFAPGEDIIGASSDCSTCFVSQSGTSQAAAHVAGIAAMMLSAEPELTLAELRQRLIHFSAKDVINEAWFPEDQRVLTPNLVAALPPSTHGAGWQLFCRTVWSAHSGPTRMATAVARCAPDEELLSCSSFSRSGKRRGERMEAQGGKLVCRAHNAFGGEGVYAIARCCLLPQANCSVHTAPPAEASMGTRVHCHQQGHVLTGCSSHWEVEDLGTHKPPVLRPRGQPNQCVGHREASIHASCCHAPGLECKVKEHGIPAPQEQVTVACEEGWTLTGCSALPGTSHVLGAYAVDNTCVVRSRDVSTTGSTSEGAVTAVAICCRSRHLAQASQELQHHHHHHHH

T1 sequence (Q8NBP7 31-152 limits assumed, chain 1 of 2): as the sequence (A8T644 31-152 limits assumed, chain 1 of 2) above
T1 sequence (Q8NBP7 153-692 limits assumed, chain 2 of 2): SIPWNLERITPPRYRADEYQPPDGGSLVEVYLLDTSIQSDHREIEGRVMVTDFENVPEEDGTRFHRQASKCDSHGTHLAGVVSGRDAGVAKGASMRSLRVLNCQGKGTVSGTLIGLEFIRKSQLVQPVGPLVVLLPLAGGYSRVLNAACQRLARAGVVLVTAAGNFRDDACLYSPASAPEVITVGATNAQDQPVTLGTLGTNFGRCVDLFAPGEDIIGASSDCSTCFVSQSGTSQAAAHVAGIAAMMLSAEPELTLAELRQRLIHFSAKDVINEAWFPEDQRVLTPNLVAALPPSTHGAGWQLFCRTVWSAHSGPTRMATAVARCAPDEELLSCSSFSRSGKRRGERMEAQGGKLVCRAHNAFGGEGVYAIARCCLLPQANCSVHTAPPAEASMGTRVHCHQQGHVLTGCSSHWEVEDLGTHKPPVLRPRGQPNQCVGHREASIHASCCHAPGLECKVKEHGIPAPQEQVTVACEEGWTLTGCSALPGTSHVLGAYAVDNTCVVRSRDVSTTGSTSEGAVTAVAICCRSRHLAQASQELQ

| Binder | binding result [1] | IC50 [2] [µM] |
| --- | --- | --- |
| TAFTSWEEYLDWVGSGCYPLCRVG (phage clone) [SEQ ID NO 355] | binds | – |
| TAFTSWEEYLDWVGSGCYPLCRVL (phage clone) [SEQ ID NO 364] | binds | – |
| SGGSMPWNLERIFALH [SEQ ID NO 390] | binds | – |
| SGCSDLWNLARIYPMC (not fully specified (bridges); cysteine pairing not given here) [SEQ ID NO 391] | binds | – |
| SGGSIPWNLERITPPR (phage clone without anchor) [SEQ ID NO 382] | binds | – |
| TAFTSWEEYLDWVGSGGCGYRYMCDMINGL (phage clone) [SEQ ID NO 358] | binds | – |
| TAFTSWEEYLDWVGSGRCESKGWANTCVSE (phage clone) [SEQ ID NO 362] | binds | – |
| SGNALWNHDRLT (phage clone without anchor) [SEQ ID NO 379] | binds | – |
| SGLAPTVSDS (phage clone without anchor) [SEQ ID NO 375] | binds | – |
| TAFTSWEEYLDWVGSGSPCRVGYTPC (not fully specified (bridges); cysteine pairing not given here, phage clone) [SEQ ID NO 351] | binds | – |
| TAFTSWEEYLDWVGSGCLDRSGGCYTREGYLS (phage clone) [SEQ ID NO 353] | binds | – |
| SGCRLPWNLQRIGLPC [SEQ ID NO 386] | binds | – |
| SGRNGSGYINRGIEIW (phage clone without anchor) [SEQ ID NO 380] | binds | – |
| SGMVYVDRGVRVFT (phage clone without anchor) [SEQ ID NO 368] | binds | – |
| SGPRTYLRGLVD (phage clone without anchor) [SEQ ID NO 366] | binds | – |
| SGDTRSQLSH (phage clone without anchor) [SEQ ID NO 376] | binds | – |
| SGDFIPWNLVRIGLLR [SEQ ID NO 385] | binds | – |
| TAFTSWEEYLDWVGSGNCARLYSHQRDYSQVC (phage clone) [SEQ ID NO 352] | binds | – |
| TAFTSWEEYLDWVGSGSSTWHFVGGVRV (phage clone) [SEQ ID NO 354] | binds | – |
| SGNCWSSLRGICENLG (not fully specified (bridges); cysteine pairing not given here, phage clone without anchor) [SEQ ID NO 367] | binds | – |
| TAFTSWEEYLDWVGSGQVTSLPQA (phage clone) [SEQ ID NO 363] | binds | – |
| SGACLNHFVSGNMIRC (not fully specified (bridges); cysteine pairing not given here, phage clone without anchor) [SEQ ID NO 371] | binds | – |
| SGACVKPCIAGNIIR (not fully specified (bridges); cysteine pairing not given here) [SEQ ID NO 388] | binds | – |

| Binder | binding result [1] | IC50 [2] [µM] |
| --- | --- | --- |
| SGHASKGMVLSG (phage clone without anchor) [SEQ ID NO 381] | binds | – |
| SGVCSDHYIGGKEVRC (not fully specified (bridges); cysteine pairing not given here, phage clone without anchor) [SEQ ID NO 378] | binds | – |
| Ac-CFIPWNLQRIGLLC-NH2 (disulfide 1-14 (inferred)) [Compound 31] | – | > 50 |
| Ac-SGCRLPWNLQRIGLPC-NH2 (disulfide 3-16 (inferred)) [Compound 30] | – | > 50 |
| SGEHQFYSYRGVDVYR (phage clone without anchor) [SEQ ID NO 370] | binds | – |
| SGGCVKYRGSVSCQESKT (not fully specified (bridges); cysteine pairing not given here, phage clone without anchor) [SEQ ID NO 369] | binds | – |
| Ac-SGCFIPWNLQRIGLLC-NH2 (disulfide 3-16 (inferred)) [Compound 29] | – | > 50 |
| TAFTSWEEYLDWVGSGKCDSHYIRGVVACH (phage clone) [SEQ ID NO 356] | binds | – |
| SGTPEMPAML (phage clone without anchor) [SEQ ID NO 374] | binds | – |
| TAFTSWEEYLDWVGSGPTSGLTPS (phage clone) [SEQ ID NO 361] | binds | – |
| TAFTSWEEYLDWVGSGDCLRYRVGSSCS (not fully specified (bridges); cysteine pairing not given here, phage clone) [SEQ ID NO 360] | binds | – |
| TAFTSWEEYLDWVGSGKMTHMKAD (phage clone) [SEQ ID NO 357] | binds | – |
| SGCFIPWNLQRIGLLC [SEQ ID NO 383] | binds | – |
| Ac-CRLPWNLQRIGLPC-NH2 (disulfide 1-14 (inferred)) [Compound 32] | – | > 50 |
| B1 | – | > 50 |
| B2 | – | > 50 |
| B3 | – | > 50 |
| SGSYRGAWSVFGGSTD (phage clone without anchor) [SEQ ID NO 372] | binds | – |
| SGCWTYLRGGCSVT (not fully specified (bridges); cysteine pairing not given here, phage clone without anchor) [SEQ ID NO 373] | binds | – |
| SGGACPWNLERIGLSC [SEQ ID NO 384] | binds | – |
| SGRCLNHLISGNMNSC (not fully specified (bridges); cysteine pairing not given here) [SEQ ID NO 387] | binds | – |
| SGAGKLDLSG (phage clone without anchor) [SEQ ID NO 377] | binds | – |
| TAFTSWEEYLDWVGSGGDCYPHCRLV (not fully specified (bridges); cysteine pairing not given here, phage clone) [SEQ ID NO 359] | binds | – |
